Measurements as given in patent US20160158359A1 (JUNO THERAPEUTICS, published 2016).
Ends that are not written are not given here.

B1: FWVKRGLKK (SEQ ID NO: 63) (peptide)
peptide: FWVKRGLKK
notes: synthetic 9-mer; the entry already carries the change; also called R32L
B2: WVQRGNKKS synthetic 9-mer peptide (SEQ ID NO: 91), variant of overlapping reference peptide 7 of the CD28 transmembrane/4-1BB junction (peptide)
peptide: WVQRGNKKS
modifications: not fully specified
notes: Synthetic 9-mer; also called K29Q/L35S
B3: WVQRGNKKA synthetic 9-mer peptide (SEQ ID NO: 92), variant of overlapping reference peptide 7 of the CD28 transmembrane/4-1BB junction (peptide)
peptide: WVQRGNKKA
modifications: not fully specified
notes: Synthetic 9-mer; also called K29Q/L35A
B4: IFWVQRGSK (peptide)
peptide: IFWVQRGSK
B5: AFIIFWVRR synthetic 9-mer peptide (overlapping reference peptide 2, K29R) (peptide)
peptide: AFIIFWVRR
notes: Variant 9-mer of the CD28-4-1BB junction region
B6: WVKRGRKKA synthetic 9-mer peptide (overlapping reference peptide 7, L35A) (peptide)
peptide: WVKRGRKKA
notes: Variant 9-mer of the CD28 transmembrane / 4-1BB costimulatory junction region of a CAR
B7: AFIIFWVRR synthetic 9-mer peptide (SEQ ID NO: 101), K29R variant of overlapping reference peptide 2 of the CD28 transmembrane/4-1BB junction (peptide)
peptide: AFIIFWVRR
notes: Synthetic 9-mer
B8: WVKRGRKKA synthetic 9-mer peptide (SEQ ID NO: 90), L35A variant of overlapping reference peptide 7 of the CD28 transmembrane/4-1BB junction (peptide)
peptide: WVKRGRKKA
notes: Synthetic 9-mer
B9: WVQRGNKKS synthetic 9-mer peptide (overlapping reference peptide 7, K29Q/L35S) (peptide)
peptide: WVQRGNKKS
modifications: not fully specified
notes: as for B5
B10: WVQRGNKKA synthetic 9-mer peptide (overlapping reference peptide 7, K29Q/L35A) (peptide)
peptide: WVQRGNKKA
modifications: not fully specified
notes: as for B5

Tests used:
[1] = molecular target: T1, HLA-B*08:01 (recombinant MHC class I molecule) (human); assay: REVEAL MHC-peptide complex stabilisation assay, recombinant HLA-B*08:01
T1 construct: Recombinant MHC molecule of the ProImmune REVEAL assay; the test peptide is the third part of the ternary complex
Experimental: (§1) Specifically, assessment was of a series of overlapping 9-mer peptides derived from the sequence […] (set forth in SEQ ID NO: 7), which contains a portion of the CD28 transmembrane domain and 4-1BB costimulatory domain spanning the junction between the domains (bond joining the two amino acids noted in underline). In addition, a series of overlapping 9-mer peptides of each of a number of different variants of this portion also were assessed, each variant containing a mutation or mutations in this region as described in Example 2.
(§2) The various 9-mer overlapping peptides were synthesized and their purity tested by MALDI-TOF Mass Spectrometry.

[2] = molecular target: T2, HLA-A*11:01 recombinant MHC class I molecule (human); assay: REVEAL MHC-peptide binding assay, stabilisation of ternary MHC-peptide complex, recombinant HLA
T2 construct: Recombinant MHC molecule of a bought assay service
Experimental: as §1, §2

[3] = molecular target: T3, HLA-B*08:01 recombinant MHC class I molecule (human); assay: as above
T3 construct: Recombinant MHC molecule of a bought assay service
Experimental: as §1, §2

[4] = molecular target: T4, HLA-A*03:01 recombinant MHC class I molecule (human); assay: REVEAL MHC-peptide complex stabilisation assay, recombinant HLA-A*03:01
T4 construct: Recombinant MHC molecule incubated with synthetic peptide
Experimental: as §1, §2

[5] = molecular target: T5, recombinant HLA-A*02:01 MHC class I molecule (human); assay: REVEAL MHC-peptide binding assay, stabilisation of ternary complex with recombinant MHC
T5 construct: Recombinant MHC molecule incubated with each synthetic peptide; the assay measures how far the peptide stabilises the ternary MHC-peptide complex; also called HLA-A2:01
Experimental: as §1, §2

[6] = molecular target: T6, recombinant HLA-A*03:01 MHC class I molecule (human); assay: as above
T6 construct: Recombinant MHC molecule incubated with each synthetic peptide; the assay measures how far the peptide stabilises the ternary MHC-peptide complex
Experimental: as §1, §2

Binder | In Vitro Score [2] | In Vitro Score [3] | In Vitro Score [5] | In Vitro Score [6] | further results
B1 | – | – | – | – | In Vitro Score [1]: 6.3 % of positive control peptide
B2 | 5 % of positive control peptide (set at 100%) | 0 % of positive control peptide (set at 100%) | – | – | –
B3 | 0.8 % of positive control peptide (set at 100%) | 0.7 % of positive control peptide (set at 100%) | – | – | –
B4 | – | – | – | – | In Vitro Score [4]: 0.3 % of positive control peptide
B5 | – | – | 1.4 score, % of positive control peptide (=100) | – | –
B6 | – | – | 4.5 score, % of positive control peptide (=100) | 0.9 score, % of positive control peptide (=100) | –
B7 | 1.5 % of positive control peptide (set at 100%) | 0.3 % of positive control peptide (set at 100%) | – | – | –
B8 | 3.1 % of positive control peptide (set at 100%) | 3.1 % of positive control peptide (set at 100%) | – | – | –
B9 | – | – | 1.2 score, % of positive control peptide (=100) | 0.7 score, % of positive control peptide (=100) | –
B10 | – | – | 1.9 score, % of positive control peptide (=100) | 1.2 score, % of positive control peptide (=100) | –
